Source: article PMC5467207, “Single-peptide DNA-dependent RNA polymerase homologous to multi-subunit RNA polymerase” (Nature Communications, 2017)

Key:
[1] = tested on: T1, Nc1nc2c(ncn2[C@@H]2O[C@H](COP(=O)(O)OP(=O)(O)OP(=O)(O)O)[C@@H](O)[C@H]2O)c(=O)[nH]1; assay: misincorporation in assembled elongation complexes, Urea-PAGE, Michaelis-Menten fit; format: biochemical, Escherichia coli; conditions: misincorporation (non-cognate NTP for the template base), assembled elongation complex, pH 8.5, MgCl2
T1 construct: core enzyme without sigma, ~400 kDa five-subunit core (2α, β, β′, ω); 6xHis tag on the RNAP; with DNA-directed RNA polymerase subunit alpha; DNA-directed RNA polymerase subunit omega

[2] = substrate: Nc1ncnc2c1ncn2[C@@H]1O[C@H](COP(=O)(O)OP(=O)(O)OP(=O)(O)O)[C@@H](O)[C@H]1O; assay: RNA extension in assembled elongation complexes, Urea-PAGE, Michaelis-Menten fit; format: biochemical, Bacillus subtilis; conditions: 10 °C, assembled elongation complex (template DNA, RNA primer), 20 mM Tris-HCl pH 8.5, 40 mM KCl, 10 mM MgCl2
[3] = substrate: Nc1nc2c(ncn2[C@@H]2O[C@H](COP(=O)(O)OP(=O)(O)OP(=O)(O)O)[C@@H](O)[C@H]2O)c(=O)[nH]1; assay: misincorporation in assembled elongation complexes, Urea-PAGE, Michaelis-Menten fit; format: biochemical, Bacillus subtilis; conditions: misincorporation (non-cognate NTP for the template base), assembled elongation complex, pH 8.5, MgCl2

“E. coli core msRNAP (Escherichia coli K-12)” showed a Km [1] of 458 ± 23 µM.

B1: YonO (Bacillus subtilis subsp. subtilis str. 168) (protein)
chain: MKGKKDGLNKQVHIYSIDTSAFYNDQENKLHNKILKSYRYRDHLRKLEHVDKKHKKYITQRIISLKEKLYNAFNDHNQIRTLRTDSLKDNNVISLFDSVLTRTLGIKENSLSEEIMVVQTYHFQILRDIIDKGFIHNNEKYVYFTSSAGQIRTKKSCFIKQSTLDKYQNALTCGLSVEHINAQGGSSINKWNSYMALSNSASSSWEIDIDKAIVVNDLETNVSSLVDYIDRDTYEITRKIMDIPIEHTDGCGMMLPSLSQKSFMVRLPWVKGLLVPFDFRKFAEKHSSFIVKDVYGKEWDIIKDDIQIIFTKSQFKMWKYYDSWDDYRYKFKKYGCLGAKLNEEDPSVEGKLTYQMLQTLTDITDEELKQISSKTVSEITQLGTDKETMMKVLGATEKNKHKTSLQEALLIYPELLNDDHTKEIIKNKKKSMIKDAKSGKLLVSDARYTYLCPDLYAFCERLFLGIESPKGLLSGSDVHCSLYDEGYIDILRSPHLFREHGVRWNKKNEEYEKWFITPGVYTSIHDPISKLLQFDNDGDKALIISDELIVNIAKRNMADIVPLYYEMSVAQKQEINSRNIYEALTLAYGINIGEYSNNITKIWNSDNINLDVIKWLCMENNFTIDFAKTLFMPTRPDHVDEKIKDYIKNKVPHFFINAKDKEEHSVESINESTVNKLDSIIPSDRINFAAVAGKFDYRFLLKNKEIKLNEAVINEYKRLDRNKKWLMNDEEAKPGQKLYVYKIIKQKLLEIHNDDGFITDVLVKHLYKKKSKYKSTLWECFGDIVLENIKHNLKTFKGCCICGKAFKPTSNKAKYCQSCGKKKERDKYKKYNKKRINHR
notes: N-terminal 6xHis-tag, pET-28a, expressed in E. coli T7 Express; single chain, ~100 kDa
Molecule B1 has a Km [2] of 1.8 ± 0.7 µM and a Km [3] of 126 ± 41 µM.
